Laboratory results published in US20230287383A1, “PYRROLYSYL-tRNA SYNTHETASE VARIANTS AND USES THEREOF” (enGenes Biotech GmbH, priority 2020, published 2023).

Columns and labels:
eGFP Y40am [1] = test: eGFP Y40am amber suppression reporter: ncAA incorporation by o-pairs, fluorescence normalized to cell density; type: cell-based
Protocol: The incorporation of BocK, AllocK and AzK by the MmPyIRS/MmtRNACUA^Pyl and MaPyIRS/MatRNACUA^Pyl o-pairs was compared. The ncAAs were supplemented in the medium at 5 mM. eGFP fluorescence (λex 488 nm; λem 508 nm) was assessed after 4 hours (white bars) and overnight (black bars) induction. Fluorescence units were correlated to cell density (F488;508/D600) and the average of eight technical replicates is shown; the error bars indicate the standard deviation.
The incorporation of AzK by the MmPyIRS/MmtRNACUA^Pyl and the MaPyIRS/MatRNACUA^Pyl wild type and mutant o-pairs was compared. The ncAA was supplemented in the medium at 5 mM. eGFP fluorescence (λex 485 nm; λem 530 nm) was assessed after overnight induction. eGFP wild type was expressed from the same plasmid carrying the MmOP. Fluorescence units were correlated to cell density (F485;530/D600) and the average of at least two technical replicates is shown; the error bars indicate the standard deviation.
FIG. 4: The MaPyIRS M129L V168C/MatRNACUA^Pyl mutant o-pair produces more target protein than MmOP with less or the same amount of AzK. MaOP LC, MaPyIRS M129L V168C/MatRNACUA^Pyl; MmOP, PyIRS and RNACUA^Pyl from M. mazel, both o-pairs were used in BL21(DE3) cells; UNINDUCED, eGFP Y40am expression was not induced; INDUCED, expression was induced with 1 mM IPTG. Different concentrations of AzK were provided in the medium either 2 hours before induction with IPTG, or in parallel with IPTG. eGFP fluorescence (λex 485 nm; λem 530 nm) was assessed after overnight induction and was normalized to cell density (D600). The average of at least 3 replicates is shown and the error bars indicate the standard deviation.
The MaPyIRS M129L+V168C mutant variant was generated, which contains the same amino acid residues in the amino acid binding pocket as the MmPyIRS. […] The efficiency of the incorporation of AzK into the reporter protein eGFP Y40am was assessed by recording the fluorescence intensity normalized to the corresponding cell density and was compared to the fluorescence of wild type eGFP expressed from the same plasmid.

eGFP Y40am [2] = test: SDS-PAGE analysis of eGFP Y40am expression in the presence of AzK; type: cell-based; details: overnight induction, compared to eGFP wild type band
Protocol: FIG. 3: SDS-PAGE analysis of the expression of eGFP Y40am in the presence of AzK with the MaPyIRS M129L V168C/MatRNACUA^Pyl mutant o-pair in comparison to MmOP and MaOP corroborates the fluorescence analysis. eGFP expression was assessed after overnight induction, two expressions of eGFP Y40AzK with the mutant MaOP are shown. eGFP wild type was expressed from the same plasmid carrying the MmOP. Samples of corresponding cell density were analyzed. The calculated molecular weight of eGFP is 28 kDa. M, molecular weight marker.
To further validate the finding, the expression of the reporter protein eGFP by SDS-PAGE was analyzed (e.g., FIG. 3).

B1: MmPyIRS/MmtRNACUA^Pyl: wildtype Methanosarcina mazei pyrrolysyl-tRNA synthetase/tRNA o-pair, the benchmark (protein, UniProt Q8PWY1 1-454, looked up)
Pyrrolysine--tRNA ligase: MDKKPLNTLISATGLWMSRTGTIHKIKHHEVSRSKIYIEMACGDHLVVNNSRSSRTARALRHHKYRKTCKRCRVSDEDLNKFLTKANEDQTSVKVKVVSAPTRTKKAMPKSVARAPKPLENTEAAQAQPSGSKFSPAIPVSTQESVSVPASVSTSISSISTGATASALVKGNTNPITSMSAPVQASAPALTKSQTDRLEVLLNPKDEISLNSGKPFRELESELLSRRKKDLQQIYAEERENYLGKLEREITRFFVDRGFLEIKSPILIPLEYIERMGIDNDTELSKQIFRVDKNFCLRPMLAPNLYNYLRKLDRALPDPIKIFEIGPCYRKESDGKEHLEEFTMLNFCQMGSGCTRENLESIITDFLNHLGIDFKIVGDSCMVYGDTLDVMHGDLELSSAVVGPIPLDREWGIDKPWIGAGFGLERLLKVKHDFKNIKRAARSESYYNGISTNL
modifications: with cognate tRNA Pyl
notes: wildtype Methanosarcina mazei pyrrolysyl-tRNA synthetase/tRNA o-pair, the benchmark
- AllocK incorporation (eGFP Y40am [1]; AllocK 5 mM in medium, eGFP fluorescence correlated to cell density): efficient incorporation
- AzK incorporation efficiency (eGFP Y40am [1]; AzK 5 mM in medium, eGFP fluorescence correlated to cell density (D600)): very well incorporated
- BocK incorporation (eGFP Y40am [1]; BocK 5 mM in medium, eGFP fluorescence correlated to cell density): efficient incorporation
- eGFP expression band intensity in the presence of AzK (eGFP Y40am [2]): markedly less intense
